Laboratory results: the DeepSol protein solubility set

assay: soluble on expression in E. coli; label from the status in PepcDB or PDB records

Soluble on expression in E. coli, soluble:
MNKILIAAASSGTGKTTVTLGIMHALKKRGLRVQPFKVGPDYIDTNYHQAITGVASINLDSFLIDDDAMLAALFEKHGQSADISVIEGVMGLFDGLGIDRDNSSTSFIAKCTKTPVILVVDGKAISTSAAAIVDGFNRFDPELTIAGVIINRVASENHFSLIKGAIERYTDVPVLGYLPKNAAVALPERHLGLVPKEEMTELETKWEVLGDLIAEHVDLDRLLAISKTGAKLTVHPPEIQVPDFSGMRVAYALDAAFHFYYQDNLDFIRSTGATLIPFSPLEEREVPDADFIYIGGGFPEVFAERLAKNKSMHESILAAHEQGKPIYAECGGLMYLGSSLEMEAESYEMVGVFDGVSKMTTRLRKFGYCIAEPLEDTLLGKKGTAIRGHEFHHSVFETTEPTRMKLTKKRDGETVKEWHGGYQKGNTFASYLHIHFYQNLAMITHMFGAIERLEHHHHHH
MNLEPPKAEIRSATRVMGGPVTPRKGPPKFKQRQTRQFKSKPPKKGVQGFGDDIPGMEGLGTDITVICPWEAFNHLELHELAQYGII
MNLNTPVEIPSGFTPISHAQQLLIMGSCFAENIGTLLAENKFRIDINPFGILYNPRSISMALREIISQKQYKASDLFLHRECWHSPMHHGSFSAATLADTLRNIQSRVEQAHKELKQLDRLMLTFGTAYVYEQKETGKVVANCHKLPEKNFIRRRLEIDEIVEDYTLLLDELISLNPQLKILFTVSPIRHIRDGMHANQLSKSVLLLAIDRLMQRYPQVTCYFPSYEIVLDELRDYRFYADDMVHPSTLTVNYLWERFSETFFTPETQSLIKECET
MNNIGVPAREVDVVVTGAGQAGLSSAFHLRRTGFEPERDFVVLDHAPRPGGAWQFRWPSLTYRKVHGMHALPGMELTDADPSRPSSEVIAEYFDTYERTFDLRVRRPVDVTAVREGEGGRLLVQTSDGTWATRALINATGTWDRPFWPRYPGQESFRGRQLHTAQYPGPEEFAGQRVVVVGGGASGTQHLMEIAPYAASTTWVTRRPPVFREGPFSEDVGRAAVAMVEERVRRGLPPRSVVSVTGLPLNDAVRRAIADGVLDRLPVFDRITPDGVEWDDGRRVAADVILWATGFRAAIDHLAPLRLRAPGGGIRVEGTRVVADPRIHLVGYGPSASTIGANRAGRAAVRDIRRLLAGEPLTVLEHHHHHH
MNNNNKAKTLITQLEQEINWVEELNTLLSEEKEILSTSQFNQLETLAEKKQELSTKLEASAKQRVDLIKESNPGDKPHGLLLSDFLKNCATEDGIQINHLNNTLAERLNLCRELNTINGQVIANNMYTRQQIVNALSGNKSDAVSVYTSNGNLETPSESSHHEEA
MNPLSIVIITLNEENRIGRLLEDLTEQTFKNFEVIVVDSNSSDATCEVAQSFSASIPDLTVHKMDKQGVSLGRNTGASLAKHERLLFLDADVRLSPDFLTKALTQLNEKGLEVAGVYMGSKGLPVAHKLGYMTFNIGLFLTQFAFPTAVGACIFSTRRAHKDLLGFDENITLCEDCDYVKRASRTWRFRFLPMTFEFDPRRLEQDGFLRMGYTYLKANVRRFLFGEMRNNEMEYKFGHYSNQKLEHHHHHH

Soluble on expression in E. coli, not soluble:
MNKKHVVILGAGYAGLKTLRELQKGAKDVEITLVDRNNYHYEATDLHEVAAGTQPAEKITYNIMDVVDEKMTTFIQGTVKTIDAATQTVALEDGQTINYDYLVVSLGFESESFGIPGVQEHALQMVDVKTALNVYEHIQEQMRQYKATQNEEFLKIVVCGAGFTGIELLGSLVENKPKFAEIAGVSADQIQIYCVEAVTRLLPMFNEKLANYGVQLLKDSAIHLLLGKPIKEIKPGAVVYQDNEAGDLAELSAKTIIWTTGVSGSHVVGDSGFEARRGRVMVQPDLTDANHSNVYIIGDCSAVMDTETNRPYPTTAQIALKMGAHAAKNIQAQLKGEATKPFSFKSQGSVCSVGNTRALGIVGKTDIKGYPASFMKKIIMNKALFETGGTKEMMAKGRFDLYH
MNKLLTSKSEIIERKIRYDSTTVEHTCLLLEKQLRSIVLFHEVQYSFTMNTHDSSLTIPKGSYTIAYYWEDRPYNLYIWRDKDGMYVGSYFNVVKNTQITDELVSFEDLIIDILVLPSGEYFILDEDELPESLEEFEDGYVNEALHVLEEIIQKTLPQMIVETERVRLN
MNKQRFVVIDVETTGNSPKKGDKIIQIAAVVIENGQITERFSKYINPNKSIPAFIEQLTGISNQMVENEQPFEAVAEEVFQLLDGAYFVAHNIHFDLGFVKYELHKAGFQLPDCEVLDTVELSRIVFPGFEGYKLTELSEELQLRHDQPHRADSDAEVTGLIFLEILEKLRQLPYPTLKQLRRLSQHFISDLTHLLDMFINENRHTEIPGYTRFSSFSVREPEAIDVRINEDENFSFEIESWEAGNEKALSELMPGYEKRDGQMMMMREVADAFANREHALIEAPPGIGKTIGYLIPAALFAKKSKKPVIISTYSTLLQQQILTKDLPIVQDLFPFPVTAAILKGQSHYLCLYKFEQVLHEEDDNYDAVLTKAQLLVWLTETNTGDVAELNLPSGGKLLWDRLAYDDDSYKRSRSEHVIGFYERAKQIAMRSDLVITNHSLLLTDEGSHKKRLPESGTFIIDEAHHFERAASEHLGKRATYIELHTKLSRIGTLKEQGLLKKMRQLFQRNSLPVDSFFELEEWLQHVQAESDAFFSSVHSFVKRRKPKEDLNRLVFKVNKESQDKSWSILTDGAERLCSMLTHLQQLFEAQSSLMEKHLKGMKSKTVFLADEYQRSMKGLQHYCQTLQKLFFGSDDDEAVWIEIDAKGAKNAVAIYAQPLEPGELLADQFFARKNSVVLTSATLTVEGSFQFMIERLGLSDFFPRTMRIESPFSYDERMQVMIPKEMKSIQDTGQPEFIQDTARYIELMAKEKQPKILVLFTSHDMLKKVHQELKHNMSASGIQLLAQGITGGSPGKLMKTFKTSNQAILLGTNHFWEGVDFPGDELTTVMIVRLPFRSPDHPLHAAKCELARKKGKNPFQTVSLPEAVLTFRQGIGRLLRSAGDKGTIIILDRRIKTAGYGRLFLDALPTTSVSEMTDSELEAY
MNLSFKIFDISNTQRSKAKKVQGKKYEIFLNENEHSLITPKVSFKEILRYYYLYPKNAIPSFKLPFFKPDLSGFSTPHITWLGHSSLFISFKEYKILIDPIFNTHASPISFINKAFKNAPVYNINDFNEIFAVIITHSHFDHLDAKSVKALKDKAKFFITPLKVGNYLKSYGVSEKKIIELDWWSGIEFGDLKIMATPAQHSSSRGDGKNKTLWASFVMEFLSVDKRVFFSADGGYFTHFKKIGEYFGSFDLACLESGQFNIAWPYSHSFPEQILKEAKDLNAKAVMPIHWGRFLAGTHAWNEVVKFLYENLDLPLITPKMGEAYEVGAKFKQDFWWKEELEHHHHHH
MNLSNHFLIAMPDMEDAFFSQSVVYICKHDEDGALGIAINKPSPITMDMIFSATGKNIPMRMQHDSVMMGGPVQVERGYVVHTPIGNWQSSIGVSDNIALTSSRDVIENISREGAVDKALISIGYSSWSKGQLERELADNAWLTVPADEHILFDIPYEHRYAAAFAKLGIDPLALFSGAGHA
MNLSTKQKQHLKGLAHPLKPVVLLGSNGLTEGVLAEIEQALEHHELIKVKIATEDRETKTLIVEAIVRETGACNVQVIGKTLVLYRPTKERKISLPR
MNMLEKIQSQLEHLSKSERKVAEVILASPDNAIHSSIAALALEANVSEPTVNRFCRSMDTRGFPDFKLHLAQSLANGTPYVNRNVNEDDSVESYTGKIFESAMATLDHVRHSLD
MNNELPDDIELLKAMLRKQQSRLRQYACQVAGYEQEIERLKAQLDRLRRMLFGQSSEKKRHKLENQIRQAEKRLSELENRLNTARNLLEDASSVTDSPDTSPPSENPIASKPESPGRKSSRKPLPAELPRETHRLLPAETSCPACGGVLKEMGETISEQLDIINTAFKVIETIRPKLACSRCDVIGTTSS
MNNFKLHTPTRILFGKGAIVDLRDQIPQDARVLITYGGGSVKKTGVLAQVQEALKGLDVREFGGIEPNPSYETLMKAVQLVRDENITFLLAVGGGSVLDGTKFIAAAAQYTDGVDPWHILETGGTEIRSAIPMGSVLTLPATGSESNAGAVISRKTTGDKQAFHSSFVQPVFAVLDPVYTYTLPPRQVANGVVDAFVHTVEQYVTYPVNGKIQDRFAEGILLTLIEEGPKALQEPENYDVRANVMWAATQALNGLIGAGVPQDWATHMLGHELTAMHGLDHAQTLAIVLPALWNEKRDVKRAKLLQYAERVWNITDGSDDERIDAAIAATRRFFEQMGVPTHLSDYGLDGSTIPALLAKLEAHGCINLGENQDITLDVSRRIYEAAR
MNNKLVRSLKYNDVYGELYSYENSSALTVIFPGINYGHEKPLLYYARKAAAQNNIDILCINYKNKISWEDIGKQSIEDVAIEIKGIIKNVIEKKYDNIYFLGKSVGTEIAGCTSSKLNIDNIKFLYLTPIEETLKYIVDRKCIVVSGTKDEFFKSECINKIRENKNVKLMLFEGANHSLEIKDDIIRSLRILDNVAQLYLDFFK
MNNSNENDVILAWWDWGHFITYYARRSPIAQGGPSVGVALYLLGKLNENWAINLGVDYVIVSYYDFLKFGAILSTANLSKRYNIRGYGLVVLPLRASTGALIFENRGYRAIVRHDKSWNAVIIYNGQMIYPRKLYVEHKEGVQEIKPPESNSNTYLYVNLNYGLEHHHHHH
MNNSSNADSQEGSTSAQKQKTANPSESRPFVLKKWNALAVWAWDVECDTCAICRVHLMEECLRCQSEPSAECYVVWGDCNHSFHHCCMTQWIRQNNRCPLCQKDWVVSRTSK
MNNTVIACVDGSPSTRPVCEYAAWAAGKLGAPLALLHVLEKSETPAVSDLTGSIGIDSREQLTEALVRVEGERSRLLMAQGKAVLAGCAELLKQTGQPDAQLLQKHGALDEILAELGEVRLMVLGRRGTQNQVGSHLESVIRLQKNPVLIVPETFTPPARVMFAYDGSSESRKNLTRLTVSPLLHGLSCHIVMVNGDMSALQDAQAVLQEAGITTETRLLEDESVTGALCRYADAHDIDLTVMGACGHSRLRRFFIGSHTTEMLSESRQPLLMLR
MNNVFVYCEIEGTTVADVSLELLTKGRKLANQLGCQLEAIAAGTGLAGIEKQVLPYGVDKLHVFDAPGLFPYTSLPHTSILVNLFKEEKPQICLMGATVIGRDLGPRVSSALTSGLTADCTQLEIGTHEDKKNGITYENLLYQIRPAFGGNIVATIVNPEHRPQMATVREGVMKKEILDENYKGEVVNHDVAKFVPETDYVV
MNPFDMLSPGYQDIWLRLQSERLLLEKRISAKEGELKNLMQFVQNPPFLNFPQYMLPQGPLGAQNQ
MNPITNIKNQNRMNERELSLGYAGDLKKSWHQTYKDSAWIYIGGLSYALSEGDVIAVFSQYGEVMNINLIRDKDTGKSKGFAFLCYKDQRSTILAVDNFNGISLHKRMIRVDHVEEYKVPKYKEDADDETKRLWEEGCAPKPVMREAAPMEVQEQRIKKAKEVLLDIGDVDEELLKKIKKDKKKAKKEKKREKKRAKKIRKLEKKAARDPDGDWNNKAKLIDKVVAEDDLYGENKHFDFGKKKEVEEVKHNPRPDFEKADWRDIEIWKVIREREKAEKAARGETSEAWGPEDHYVSKRYQGR
MNPQRGILFACLLVVVTNRGATAQHARPPVGVTGDVTGARIDPPSDKCENPSVNIATTEAPKIVTTAEPAANSTKPAQPNSATGPVVLLTIVAVTMN
